T1: mouse FcγRIII (mouse, UniProt P08508 31-215)
T1 construct: Extracellular domain with C-terminal His tag, made in FreeStyle 293 cells; also called mFcγRIII; mFcgRIII
T1 chain: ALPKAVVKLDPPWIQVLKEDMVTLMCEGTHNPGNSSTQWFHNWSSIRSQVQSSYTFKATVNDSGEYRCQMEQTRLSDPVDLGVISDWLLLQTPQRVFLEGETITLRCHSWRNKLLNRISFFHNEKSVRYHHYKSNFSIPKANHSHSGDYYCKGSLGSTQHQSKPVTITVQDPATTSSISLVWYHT

T2: mouse FcγRII (mouse, UniProt P08101 30-210)
T2 construct: Extracellular domain with C-terminal His tag, made in FreeStyle 293 cells; also called mFcγRII; mFcgRII
T2 sequence: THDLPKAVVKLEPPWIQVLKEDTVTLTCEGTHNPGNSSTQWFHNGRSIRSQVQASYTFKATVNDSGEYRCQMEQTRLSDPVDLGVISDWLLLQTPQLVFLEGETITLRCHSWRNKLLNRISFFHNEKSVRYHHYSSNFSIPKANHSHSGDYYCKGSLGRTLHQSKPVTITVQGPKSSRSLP


Key:
mouse FcγRIII [1] = target: T1, mouse FcγRIII; experiment: SPR (Biacore), antibody captured on Protein L
mouse FcγRII [2] = target: T2, mouse FcγRII; experiment: SPR (Biacore), antibody captured on Protein L
mouse FcγRIII [3] = target: T1, mouse FcγRIII; experiment: SPR (Biacore), KD of H237-mIgG1/MRAL-k0 / KD of variant
Description: (§1) Each altered antibody was analyzed for its interaction with each Fcγ receptor prepared above using Biacore T100 (GE Healthcare Japan Corp.), Biacore T200 (GE Healthcare Japan Corp.), Biacore A100, or Biacore 4000. The running buffer used was HBS-EP+ (GE Healthcare Japan Corp.). The assay temperature was set to 25° C. The sensor chips used were chips prepared by immobilizing Protein L (ACTIGEN or BioVision) onto Series S Sensor Chip CM5 (GE Healthcare Japan Corp.) or Series S Sensor Chip CM4 (GE Healthcare Japan Corp.) by the amine coupling method.
(§2) In order to calculate the KD value of each altered antibody for FcγR, kinetic analysis was conducted according to the following method: first, the antibody of interest was captured onto any of these chips and allowed to interact with mFcγR diluted with a running buffer. For the obtained sensorgram, the assay results were globally fit into the 1:1 Langmuir binding model using Biacore Evaluation Software to calculate an association rate constant ka (L/mol/s) and a dissociation rate constant kd (1/s). From these values, the dissociation constant KD (mol/L) was calculated.

mouse FcγRII [4] = target: T2, mouse FcγRII; experiment: as above
Description: as §1, §2

| Binder | Kd (mouse FcγRIII [1]) | Kd (mouse FcγRII [2]) | relative mFcγRIII-binding activity (mIgG1 = 1) (mouse FcγRIII [3]) | relative mFcγRII-binding activity (mIgG1 = 1) (mouse FcγRII [4]) |
| --- | --- | --- | --- | --- |
| H237-MB541/MRAL-k0 (antibody, copies: 2 + 2) heavy: QVQLQESGPGLVKPSETLSLTCAVSGHSISHDHAWSWVRQPPGEGLEWIGFISYSGITNYNPSLQGRVTISRDNSKNTLYLQMNSLRAEDTAVYYCARSLARTTAMDYWGEGTLVTVSSAKTTPPSVYPLAPGSAAQTNSMVTLGCLVKGYFPEPVTVTWNSGSLSSGVHTFPAVLQSDLYTLSSSVTVPSSTWPSETVTCNVAHPASSTKVDKKIVPRDCGCKPCICEPNEVEMVFIFPPKPKDVLTITLTPKVTCVVVDISKDDPEVQFSWFVDDVEVHTAQTQPREEQFNLTFRSVSELPIMHQDWLNGKEFKCRVNSAAFPAPIERTISKTKGRPKAPQVYTIPPPKEQMAKDKVSLTCMITDFFPEDITVEWQWNGQPAENYKNTQPIMDTDGSYFVYSKLNVQKSNWEAGNTFTCSVLHEGLHNHHTEKSLSHSPGK light: not shown | 86.4 nM | 2.04 nM | 3.3 fold | 103 fold |
| H237-MB546/MRAL-k0 (antibody, copies: 2 + 2) heavy: QVQLQESGPGLVKPSETLSLTCAVSGHSISHDHAWSWVRQPPGEGLEWIGFISYSGITNYNPSLQGRVTISRDNSKNTLYLQMNSLRAEDTAVYYCARSLARTTAMDYWGEGTLVTVSSAKTTPPSVYPLAPGSAAQTNSMVTLGCLVKGYFPEPVTVTWNSGSLSSGVHTFPAVLQSDLYTLSSSVTVPSSTWPSETVTCNVAHPASSTKVDKKIVPRDCGCKPCICEPNEVEMVFIFPPKPKDVLTITLTPKVTCVVVDISKDDPEVQFSWFVDDVEVHTAQTQPREEQFNLTFRSVSELPIMHQDWLNGKEFKCRVDSAAFPAPIERTISKTKGRPKAPQVYTIPPPKEQMAKDKVSLTCMITDFFPEDITVEWQWNGQPAENYKNTQPIMDTDGSYFVYSKLNVQKSNWEAGNTFTCSVLHEGLHNHHTEKSLSHSPGK light: not shown | 50 nM | 1.33 nM | 5.6 fold | 158 fold |
| H237-MB719/MRAL-k0 (antibody, mouse IgG1, kappa, copies: 2 + 2) heavy: QVQLQESGPGLVKPSETLSLTCAVSGHSISHDHAWSWVRQPPGEGLEWIGFISYSGITNYNPSLQGRVTISRDNSKNTLYLQMNSLRAEDTAVYYCARSLARTTAMDYWGEGTLVTVSSAKTTPPSVYPLAPGSAAQTNSMVTLGCLVKGYFPEPVTVTWNSGSLSSGVHTFPAVLQSDLYTLSSSVTVPSSTWPSETVTCNVAHPASSTKVDKKIVPRDCGCKPCICEPNEVEQVFIFPPKPKDVLTITLTPKVTCVVVDISKDDPEVQFSWFVDDVEVHTAQTQPREEQFNSTFRSVSELPIMHQDWLNGKEFKCRVNSAAFPAPIEKTISKTKGRPKAPQVYTIPPPKEQMAKDKVSLTCMITDFFPEDITVEWQWNGQPAENYKNTQPIMDTDGSYFVYSKLNVQKSNWEAGNTFTCSVLHEGLHNHHTEKSLSHSPGK light: not shown | 122 nM | 2.98 nM | 2.3 fold | 70.4 fold |
| H237-MB722/MRAL-k0 (antibody, copies: 2 + 2) heavy: QVQLQESGPGLVKPSETLSLTCAVSGHSISHDHAWSWVRQPPGEGLEWIGFISYSGITNYNPSLQGRVTISRDNSKNTLYLQMNSLRAEDTAVYYCARSLARTTAMDYWGEGTLVTVSSAKTTPPSVYPLAPGSAAQTNSMVTLGCLVKGYFPEPVTVTWNSGSLSSGVHTFPAVLQSDLYTLSSSVTVPSSTWPSETVTCNVAHPASSTKVDKKIVPRDCGCKPCICEAYEEEDVFIFPPKPKDVLTITLTPKVTCVVVDISKDDPEVQFSWFVDDVEVHTAQTQPREEQFNSTFRSVSELPIMHQDWLNGKEFKCRVNSAAFPAPIEKTISKTKGRPKAPQVYTIPPPKEQMAKDKVSLTCMITDFFPEDITVEWQWNGQPAENYKNTQPIMDTDGSYFVYSKLNVQKSNWEAGNTFTCSVLHEGLHNHHTEKSLSHSPGK light: not shown | 341 nM | 8.04 nM | 0.8 fold | 26.1 fold |

Reference: patent US20150203577A1 (Chugai, published 2015)
